Source: patent publication US20070259805A1

Biological target: MITF-M expressed in HEK293 cells from the pCI mammalian expression vector (human) (UniProt O75030)
Experiment: cell-based or functional assay

Chain of UniProt O75030 (O75030 other isoform, or with tags, fused parts or gaps limits assumed): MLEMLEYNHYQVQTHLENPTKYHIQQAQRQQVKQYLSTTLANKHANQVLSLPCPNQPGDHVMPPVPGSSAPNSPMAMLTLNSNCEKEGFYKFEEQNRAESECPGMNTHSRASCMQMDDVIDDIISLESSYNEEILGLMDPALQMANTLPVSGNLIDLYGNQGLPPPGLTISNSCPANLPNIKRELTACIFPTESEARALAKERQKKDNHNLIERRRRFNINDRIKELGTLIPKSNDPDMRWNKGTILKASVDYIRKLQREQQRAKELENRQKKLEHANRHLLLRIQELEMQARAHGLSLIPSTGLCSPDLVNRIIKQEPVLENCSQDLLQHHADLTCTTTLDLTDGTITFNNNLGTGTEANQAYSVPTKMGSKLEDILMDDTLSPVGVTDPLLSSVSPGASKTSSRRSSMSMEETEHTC

Substance	luciferase activity (firefly/renilla) in a reporter assay using BCL2 gene promoter, HEK293 cells, against cells transfected only with the MITF-M gene expression plasmid
carboxy-terminal FLAG-tagged ELK4 protein expressed in HEK293 cells from pCI (from UniProt P28324 1-372)	1.4 fold
CLOCK expressed in HEK293 cells from the pCI mammalian cell expression vector (from UniProt O15516 1-846)	1.5 fold
carboxy-terminal FLAG-tagged HLF protein expressed in HEK293 cells from pCI (from UniProt Q16534 1-295)	1.8 fold
